Results published in patent EP4660205A1 (Beijing Wisdomab Biotechnology Co., Ltd, dated 2025).
Where two headings read alike, the source gives them in different places. One block for each binder: values may come before it.

Assays:
[1] = target: T1, human IL-36R on the cell surface (HEK-Blue IL-36 cells, HaCAT cells, human CD14+ monocytes) (human, UniProt Q9HB29 20-575); test: cell-based or functional assay
T1 sequence (looked up): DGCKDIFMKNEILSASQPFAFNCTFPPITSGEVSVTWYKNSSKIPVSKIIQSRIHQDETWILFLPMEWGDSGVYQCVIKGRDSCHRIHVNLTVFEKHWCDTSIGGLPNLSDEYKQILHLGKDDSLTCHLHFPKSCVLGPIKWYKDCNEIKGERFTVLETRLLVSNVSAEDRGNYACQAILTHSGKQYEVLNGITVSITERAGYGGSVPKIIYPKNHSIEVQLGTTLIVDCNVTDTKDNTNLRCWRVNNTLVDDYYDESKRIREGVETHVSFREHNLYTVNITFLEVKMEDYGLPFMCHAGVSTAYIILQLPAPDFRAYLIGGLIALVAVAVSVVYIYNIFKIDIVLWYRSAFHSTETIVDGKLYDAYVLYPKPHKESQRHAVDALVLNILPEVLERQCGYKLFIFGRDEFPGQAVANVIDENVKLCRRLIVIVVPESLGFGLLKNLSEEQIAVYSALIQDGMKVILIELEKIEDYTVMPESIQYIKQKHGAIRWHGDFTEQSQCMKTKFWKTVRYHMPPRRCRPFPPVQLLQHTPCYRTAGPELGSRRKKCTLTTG

[2] = target: T2, hIL-1R3-His (extracellular domain of human IL-1R3 with C-terminal His tag) (human (homo sapiens), UniProt Q9NPH3 21-359); test: SPR (Biacore T200), antibody captured by anti-human Fc, hIL-1R3-His as analyte, 1:1 model
T2 sequence: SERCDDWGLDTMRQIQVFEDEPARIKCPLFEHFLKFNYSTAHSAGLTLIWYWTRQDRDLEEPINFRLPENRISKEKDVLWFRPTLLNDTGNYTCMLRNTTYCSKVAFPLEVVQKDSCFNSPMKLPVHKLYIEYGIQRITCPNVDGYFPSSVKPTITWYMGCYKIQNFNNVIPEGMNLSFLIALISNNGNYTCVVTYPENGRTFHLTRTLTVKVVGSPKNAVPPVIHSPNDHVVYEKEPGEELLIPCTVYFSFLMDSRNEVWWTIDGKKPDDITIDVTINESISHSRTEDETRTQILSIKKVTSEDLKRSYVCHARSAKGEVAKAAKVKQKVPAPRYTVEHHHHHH

[3] = target: T3, hIL-36R-His (extracellular domain of human IL-36R with C-terminal His tag) (human (homo sapiens), UniProt Q9HB29 20-335); test: SPR (Biacore T200), antibody captured by anti-human Fc, hIL-36R-His as analyte, 1:1 model
T3 construct: also called human hIL-36R-His
T3 sequence: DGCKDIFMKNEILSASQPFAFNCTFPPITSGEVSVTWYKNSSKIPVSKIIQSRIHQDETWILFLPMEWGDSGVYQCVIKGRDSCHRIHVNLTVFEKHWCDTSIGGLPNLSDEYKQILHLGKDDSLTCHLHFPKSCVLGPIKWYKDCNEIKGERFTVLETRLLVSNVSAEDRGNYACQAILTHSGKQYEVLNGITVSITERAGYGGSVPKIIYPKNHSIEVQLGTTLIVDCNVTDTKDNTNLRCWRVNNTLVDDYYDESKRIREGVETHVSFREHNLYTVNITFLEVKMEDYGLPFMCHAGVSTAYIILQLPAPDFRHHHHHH

[4] = target: T1, human IL-36R on the cell surface …; test: cell-based or functional assay; remark: listed apart in the source
[5] = target: T2, hIL-1R3-His (extracellular domain of …); test: SPR (Biacore T200), antibody captured by anti-human Fc, hIL-1R3-His as analyte, 1:1 model; remark: listed apart in the source
[6] = target: T4, human IL-1R3 on the cell surface (HaCAT cells, PBMC/NK cells, MRC-5 cells) (human, UniProt Q9NPH3 21-570); test: cell-based or functional assay
T4 sequence (looked up): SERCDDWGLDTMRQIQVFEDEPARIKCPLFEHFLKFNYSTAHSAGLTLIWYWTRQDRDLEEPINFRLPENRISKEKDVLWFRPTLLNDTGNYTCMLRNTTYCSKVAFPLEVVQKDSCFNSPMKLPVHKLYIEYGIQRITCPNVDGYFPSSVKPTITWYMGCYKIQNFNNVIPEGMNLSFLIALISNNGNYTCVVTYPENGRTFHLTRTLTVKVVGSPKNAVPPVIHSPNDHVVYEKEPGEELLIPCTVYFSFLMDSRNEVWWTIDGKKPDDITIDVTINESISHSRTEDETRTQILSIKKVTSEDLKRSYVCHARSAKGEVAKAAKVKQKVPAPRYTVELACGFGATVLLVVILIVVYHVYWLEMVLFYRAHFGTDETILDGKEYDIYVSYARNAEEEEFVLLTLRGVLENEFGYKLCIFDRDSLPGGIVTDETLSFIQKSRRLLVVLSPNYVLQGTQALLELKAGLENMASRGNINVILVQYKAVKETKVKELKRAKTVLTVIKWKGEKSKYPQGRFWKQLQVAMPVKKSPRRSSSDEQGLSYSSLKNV

[7] = target: T2, hIL-1R3-His (extracellular domain of …); test: SPR (Biacore T200), antibody captured by anti-human Fc, hIL-1R3-His as analyte, 1:1 model; remark: listed apart in the source

IC50 for inhibiting IL-36α from inducing hIL-8 secretion by HaCAT cells [1]: 0.0183 nM
IC50 for inhibiting IL-36β from inducing hIL-8 secretion by HaCAT cells [1]: 0.0211 nM
IC50 for inhibiting IL-36γ from inducing hIL-8 secretion by HaCAT cells [1]: 0.0184 nM
Kd [2]: 0.761 nM
koff [2]: 0.000155 s⁻¹
kon [2]: 203000 M⁻¹ s⁻¹
Kd [3]: 0.669 nM
koff [3]: 4.37e-05 s⁻¹
kon [3]: 65400 M⁻¹ s⁻¹
fold increase of activity by IC50 against R49E11VH-h3+L26B11VK, IL-36α, HaCAT hIL-8 secretion [4]: ~3 fold
fold increase of activity by IC50 against R49E11VH-h3+L26B11VK, IL-36β, HaCAT hIL-8 secretion [4]: ~13 fold
fold increase of activity by IC50 against R49E11VH-h3+L26B11VK, IL-36γ, HaCAT hIL-8 secretion [4]: ~103 fold
B1: Crossmab bispecific antibody (R1B9VH-h1+R1B9VK-h1-Fab-cross+R49E11VH-h3+L26B11VK-Fab) (bispecific antibody, human IgG1, kappa)
heavy 1: QVQLVQSGAEVKKPGASVKVSCKASGYSFTSSWIHWVRQAPGQGLEWMGEINPGSGRSNYNENFQGRVTMTVDTSISTAYMELSRLRSDDTAVYYCTVVFYGEPYFPFWGQGTLVTVSSASTKGPSVFPLAPSSKSTSEGTAALGCLVKDYFPEPVTVSWNSGALTSGVHTFPAVLQSSGLYSLSSVVTVPSSSLGTQTYICNVDHKPSNTKVDKTVEPKSCDKTHTCPPCPAPEFEGGPSVFLFPPKPKDTLMISRTPEVTCVVVDVSQEDPEVQFNWYVDGVEVHNAKTKPREEQYNSTYRVVSVLTVLHQDWLNGKEYKCKVSNKALPASIEKTISKAKGQPREPQVCTLPPSQEEMTKNQVSLSCAVKGFYPSDIAVEWESNGQPENNYKTTPPVLDSDGSFFLVSKLTVDKSRWQEGNVFSCSVMHEALHNHYTQKSLSLSPGK
light 1: EIVLTQSPGTLSLSPGERATLSCRASQSVIYSYLAWYQQKPGQAPRLLIYSASKRASGIPDRFSGSGSGTDFTLTISRLEPEDFAVYYCQQHAGIPVTFGQGTKVEIKRTVAAPSVFIFPPSDEQLKSGTASVVCLLNNFYPREAKVQWKVDNALQSGNSQESVTEQDSKDSTYSLSSTLTLSKADYEKHKVYACEVTHQGLSSPVTKSFNRGEC
heavy 2: EVQLVESGGGLVQPGGSLRLSCAASGFTFSSYAMSWVRQAPGKGLVWVAEISRGGSHTYYPDTVTGRFTISRDNAKNTLYLQMNSLRAEDTAVYYCARSYGNYPFDYWGQGTTVTVSSASVAAPSVFIFPPSDEQLKSGTASVVCLLNNFYPREAKVQWKVDNALQSGNSQESVTEQDSKDSTYSLSSTLTLSKADYEKHKVYACEVTHQGLSSPVTKSFNRGECDKTHTCPPCPAPEFEGGPSVFLFPPKPKDTLMISRTPEVTCVVVDVSHEDPEVKFNWYVDGVEVHNAKTKPREEQYNSTYRVVSVLTVLHQDWLNGKEYKCKVSNKALPASIEKTISKAKGQPREPQVYTLPPCREEMTKNQVSLWCLVKGFYPSDIAVEWESNGQPENNYKTTPPVLDSDGSFFLYSKLTVDKSRWQQGNVFSCSVMHEALHNHYTQKSLSLSPGK
light 2: EIVLTQSPATLSLSPGERATLSCSASSSVSYMYWYQQKPGQAPRLLIYDTSNLASGIPARFSGSGSGTDFTLTISSLEPEDFAVYYCQQWSSYPLTFGQGTKLEIKSSASTKGPSVFPLAPSSKSTSGGTAALGCLVKDYFPEPVTVSWNSGALTSGVHTFPAVLQSSGLYSLSSVVTVPSSSLGTQTYICNVNHKPSNTKVDKRVEPKSC
notes: also called IL-36R×IL-1R3 Crossmab bispecific antibody

Kd [5]: 1.45 nM
koff [5]: 0.000153 s⁻¹
kon [5]: 106000 M⁻¹ s⁻¹
IC50 for inhibiting IL-36α from inducing hIL-8 secretion by HaCAT cells [6]: 0.195 nM
IC50 for inhibiting IL-36β from inducing hIL-8 secretion by HaCAT cells [6]: 0.0961 nM
IC50 for inhibiting IL-36γ from inducing hIL-8 secretion by HaCAT cells [6]: 0.608 nM
Kd [2]: 1.45 nM
koff [2]: 0.000153 s⁻¹
kon [2]: 106000 M⁻¹ s⁻¹
Kd [7]: 1.12 nM
koff [7]: 0.000111 s⁻¹
kon [7]: 99200 M⁻¹ s⁻¹
B2: R1B9VH-h1+R1B9VK-h1 (antibody, V domains shown)
VH: EVQLVESGGGLVQPGGSLRLSCAASGFTFSSYAMSWVRQAPGKGLVWVAEISRGGSHTYYPDTVTGRFTISRDNAKNTLYLQMNSLRAEDTAVYYCARSYGNYPFDYWGQGTTVTVSS
VL: EIVLTQSPATLSLSPGERATLSCSASSSVSYMYWYQQKPGQAPRLLIYDTSNLASGIPARFSGSGSGTDFTLTISSLEPEDFAVYYCQQWSSYPLTFGQGTKLEIK
notes: also called humanized IL-1R3 antibody; R1B9VH-hl+R1B9VK-h1
